# Source: PMC7565430, “An Unbiased Immunization Strategy Results in the Identification of Enolase as a Potential Marker for Nanobody-Based Detection of Trypanosoma evansi” (Vaccines, 2020)
# T1: recombinant Trypanosoma evansi enolase (TevENO), His-tagged (Trypanosoma evansi)
# T1 construct: monomer MM = 48.41 kDa as printed; also called T. evansi enolase; recombinant TevENO; source: E. coli BL21 (DE3), purified (IMAC, SEC)
# T1 chain: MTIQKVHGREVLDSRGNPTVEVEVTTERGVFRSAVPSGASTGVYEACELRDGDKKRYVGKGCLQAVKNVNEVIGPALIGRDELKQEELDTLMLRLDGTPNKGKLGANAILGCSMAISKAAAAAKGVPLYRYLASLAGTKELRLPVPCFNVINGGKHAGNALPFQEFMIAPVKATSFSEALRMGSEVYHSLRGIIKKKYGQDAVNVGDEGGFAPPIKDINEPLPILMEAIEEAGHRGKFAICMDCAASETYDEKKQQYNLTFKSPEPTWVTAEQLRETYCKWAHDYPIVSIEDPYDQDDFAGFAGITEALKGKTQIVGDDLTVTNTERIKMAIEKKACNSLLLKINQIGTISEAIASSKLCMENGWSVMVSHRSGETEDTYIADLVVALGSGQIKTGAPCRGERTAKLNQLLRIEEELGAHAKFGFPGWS
# B1: NbR1-10 (VHH)
# VHH: QVQLQESGGGLVQPGGSLRLSCAAPGSIFSIFSGNIMGWYRQAPGKQRDFVASISSGGATNYADSVKGRFTISRDNAKNTVYLQMNNLKPEDTAVYYCNTVGGVHTNSWGQGTQVTVSS
# notes: alpaca Nanobody; source: E. coli WK6, periplasmic extract, purified (His-Select Nickel resin, SEC)
# Assays:
# [1] = system: T2, TevENO (T. evansi enolase); assay: PYK/LDH coupled assay, NADH absorbance at […] nm, Michaelis-Menten fit; type: biochemical, Trypanosoma evansi; settings: 0.1 M triethanolamine/HCl, pH 7.6, 25 °C, 2 mM MgSO4, 17 mM KCl, 1.1 mM ADP, 0.42 mM NADH; 2-PGA 0 to 1 mM
# T2 construct: gene ENO; recombinant, codon-optimised gene in pET21b, E. coli BL21(DE3); N-terminal His6 tag and TEV cleavage site, tag cleavage not described
# [2] = target: recombinant Trypanosoma evansi enolase (TevENO), His-tagged (Trypanosoma evansi); assay: SEC; analytical SEC, ENrich SEC 650 10 x 300 column, buffer A (50 mM sodium phosphate, 5 mM MgCl2, pH 7.0); 500 μg TevENO, 168.9 μg Nb11, or mixtures at TevENO:Nb11 monomer ratios 2:1, 2:2, 2:3, 2:4 incubated 1 h; peaks analysed by SDS-PAGE
# [3] = target: T1, recombinant Trypanosoma evansi enolase …; assay: ELISA; heterologous sandwich ELISA: His-tagged Nb11 coated at 1 μg/mL, TevENO 1 μg/mL in PBS, HA-tagged detection Nb at 1 μg/mL; settings: both partners purified
molecule,measurement,setting,value
"O=C(O)[C@@H](CO)OP(=O)(O)O [2-PGA, 2-phosphoglycerate]",Km,[1],52 µM
"recombinant Trypanosoma evansi enolase (TevENO), His-tagged (enzyme)",stoichiometry N,[2],2
B1,binding result,[3],binds
